Values quoted from earlier work in PMC6331645.

Target: Raf1 RBD RBD (Homo sapiens) (UniProt P04049)

Kd: 20 nM
Substance: KRas (from UniProt P01116)
